The text below walks through data of US20210238276A1 (INTEGRAL MOLECULAR, published 2021).

What all share (assay): flow cytometry, alanine-scan library in HEK-293T
In test [1] the target is T1, hsGLUT4 R169A (human, UniProt P14672 1-509).
T1 sequence: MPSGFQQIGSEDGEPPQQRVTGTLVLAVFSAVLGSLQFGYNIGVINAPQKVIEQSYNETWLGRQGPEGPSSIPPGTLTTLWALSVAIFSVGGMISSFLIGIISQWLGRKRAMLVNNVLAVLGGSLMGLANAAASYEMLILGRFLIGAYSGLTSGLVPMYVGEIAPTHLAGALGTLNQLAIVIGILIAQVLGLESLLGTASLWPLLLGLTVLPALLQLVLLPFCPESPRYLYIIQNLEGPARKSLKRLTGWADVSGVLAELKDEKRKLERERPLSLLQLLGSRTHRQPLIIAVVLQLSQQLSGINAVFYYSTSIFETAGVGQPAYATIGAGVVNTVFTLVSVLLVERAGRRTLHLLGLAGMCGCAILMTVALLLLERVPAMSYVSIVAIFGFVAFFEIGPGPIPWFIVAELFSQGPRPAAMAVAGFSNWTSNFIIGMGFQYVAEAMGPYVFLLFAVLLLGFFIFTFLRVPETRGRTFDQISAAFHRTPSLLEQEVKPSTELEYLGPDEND
How it is done:
(§1) Because of the state-dependence of the isolated MAbs, we next wished to understand the mechanism by which each MAb could recognize GLUT4 in its different conformations. The residues required for binding of each MAb were determined using shotgun mutagenesis comprehensive alanine scanning (Davidson E & Doranz B J (2014) A High-Throughput Shotgun Mutagenesis Approach to Mapping B-cell Antibody Epitopes. Immunology, which is hereby incorporated by reference in its entirety). All residues of hsGLUT4 were individually mutated to alanine, with existing alanines changed to serines. Mutations were obtained for 508 of the 509 residues of GLUT4 (excluding the initiating methionine). The entire mutation library was transfected into human HEK-293T cells in a 384-well array format (one clone per well) and assessed for immunoreactivity using high-throughput flow cytometry.
(§2) HEK-293T cells were transfected by CaPO₄ with plasmids in 6-well culture plates (Falcon) at 750,000 cells/well. At 48 hours post transfection, cells were stained with anti-V5 and anti-GLUT4 MAbs (purified scFv, 2 μg/ml) followed by biotinylated goat anti-mouse or human antibody (1:500) and streptavidin-PerCP (1:500). Fluorescence was detected using an Intellicyt high-throughput flow cytometer (HTFC; Intellicyt, Albuquerque, N. Mex.). For cell permeabilization, cells were treated with saponin at 0.1% in PBS for 20 minutes. To discriminate intact (live) and permeabilized (dead) cells without the use of detergent, propidium iodide (PI) was added to HEK-293T cells at 1 ug/ml just prior to flow cytometry. Where indicated, cytochalasin B (Sigma) was used at a final concentration of 10 uM and phloretin (Sigma) was used at a final concentration of 100 uM, each added in 10% NGS for 30 minutes prior to antibody staining as well as included with the primary antibody.

Test [2] addresses T2, hsGLUT4 N304A (human, UniProt P14672 1-509).
T2 sequence: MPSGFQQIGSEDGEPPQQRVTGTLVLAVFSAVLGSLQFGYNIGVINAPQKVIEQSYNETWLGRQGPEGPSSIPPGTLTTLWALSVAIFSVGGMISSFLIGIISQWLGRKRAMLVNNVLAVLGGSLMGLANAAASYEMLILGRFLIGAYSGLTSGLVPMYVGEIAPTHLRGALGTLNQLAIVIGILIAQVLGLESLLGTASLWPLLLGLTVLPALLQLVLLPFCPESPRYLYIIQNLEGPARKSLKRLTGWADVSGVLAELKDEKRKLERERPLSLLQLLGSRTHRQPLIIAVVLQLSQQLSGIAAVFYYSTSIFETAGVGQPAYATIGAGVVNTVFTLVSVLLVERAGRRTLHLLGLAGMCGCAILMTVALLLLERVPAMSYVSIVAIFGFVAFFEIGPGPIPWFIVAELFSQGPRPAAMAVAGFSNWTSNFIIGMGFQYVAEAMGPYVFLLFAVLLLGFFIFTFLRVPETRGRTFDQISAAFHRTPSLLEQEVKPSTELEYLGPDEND
The protocol:
as §1, §2

In test [3] the target is T3, hsGLUT4 E315A (human, UniProt P14672 1-509).
T3 sequence: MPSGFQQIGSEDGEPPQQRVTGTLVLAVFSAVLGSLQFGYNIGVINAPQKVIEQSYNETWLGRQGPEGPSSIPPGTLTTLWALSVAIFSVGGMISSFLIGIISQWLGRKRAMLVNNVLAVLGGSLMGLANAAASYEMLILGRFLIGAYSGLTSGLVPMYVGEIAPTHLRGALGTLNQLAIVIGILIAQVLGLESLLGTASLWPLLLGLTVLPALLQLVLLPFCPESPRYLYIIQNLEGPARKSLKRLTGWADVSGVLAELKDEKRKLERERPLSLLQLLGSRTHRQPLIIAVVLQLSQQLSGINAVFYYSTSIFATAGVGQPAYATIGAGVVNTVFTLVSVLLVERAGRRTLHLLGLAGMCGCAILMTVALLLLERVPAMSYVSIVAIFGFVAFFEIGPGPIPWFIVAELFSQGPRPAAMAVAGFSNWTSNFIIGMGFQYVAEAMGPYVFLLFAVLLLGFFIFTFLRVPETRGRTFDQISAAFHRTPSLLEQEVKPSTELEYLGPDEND
How it is done: as §1, §2

The target of test [4] is T4, hsGLUT4 E507A (human, UniProt P14672 1-509).
T4 sequence: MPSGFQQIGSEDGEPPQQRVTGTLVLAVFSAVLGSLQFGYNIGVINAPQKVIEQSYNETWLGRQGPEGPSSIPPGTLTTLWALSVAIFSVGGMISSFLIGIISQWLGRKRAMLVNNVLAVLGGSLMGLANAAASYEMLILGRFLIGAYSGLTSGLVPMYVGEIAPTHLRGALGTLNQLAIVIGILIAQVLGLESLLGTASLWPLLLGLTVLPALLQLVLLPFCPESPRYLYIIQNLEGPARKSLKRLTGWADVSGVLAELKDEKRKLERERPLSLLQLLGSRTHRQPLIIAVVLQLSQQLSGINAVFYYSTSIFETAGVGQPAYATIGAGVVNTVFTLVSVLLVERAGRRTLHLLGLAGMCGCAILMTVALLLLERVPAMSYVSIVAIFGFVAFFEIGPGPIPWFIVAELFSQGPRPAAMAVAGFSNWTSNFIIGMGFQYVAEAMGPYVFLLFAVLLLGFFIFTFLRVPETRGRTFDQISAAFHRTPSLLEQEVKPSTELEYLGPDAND
The protocol: as §1, §2

Turning to 1F8 (antibody), the % of binding to wild type GLUT4 in test [1] is 84%; in test [2], 79%; in test [3], 93%; in test [4] it was 127%.

B1: AB101 (scFv)
scFv: ALTQPSSVSANPGETVKITCSGSSNSYGWYQQKSPGSAPVTVIYYNDKRPSDIPSRFSGSKSDSTHTLTITGVRAEDEAVYFCGSYDSTYVGIFGAGTTLTVLGQSSRSSGGGGSSGGGGSAVTLDESGGGLQTPGGTLSLVCKASGFTFSSNAMGWVRQAPGKGLEWVAGISSDGRYTKYGSAVKGRATISRDNGQSTVRLQLNNLRAEDTGTYFCAKAFGNNYRRIYAGQIDAWGHGTEVIVSS
notes: Chicken-derived clone used as a control; the four lead clones were tested as scFv-human IgG1 Fc; also called MAb AB101
B1: the “% of binding to wild type GLUT4” value in test [1] came out at 119%; in test [2], 145%; in test [3] it was 130%; in test [4], 5%.

B2: AB105 (Fc fusion)
scFv: ALTQPSSVSANPGETVEITCSGDSSYYGWYQQKSPGSAPVTVIYANTNRPSDIPSRFSGSASGSTATLTITGVQAEDEAVYYCGSADSTYAGIFGAGTTLTVLGQSSRSSGGGGSSGGGGSAVTLDESGGGLQTPGGALSLICKASGFTFSSYTMNWVRQAPGKGLEWVGVISNSGRTTNYGAAVQGRATISRDNGQSTVRLQLNNLRAEDTGTYYCAKSSASASCAWWAGRSYPCSANRIDAWGHGTEVIVSS
notes: Bivalent scFv-Fc; also called MAb AB105; not shown: Fc fragment of human IgG1, cloned in frame with the scFv
B2 returned a % of binding to wild type GLUT4 in test [2] of 11%.

B3: AB108 (Fc fusion)
scFv: ALTQPSSVSANLGGTVKITCSGSSGSYGWYQQKAPGSAPVTLIYRNDKRPSDIPSRFSGSESGSTGTLTITGVQAEDEAVYFCGGYDSSAGYAAFGAGTTLTVLGQSSRSSGGGGSSGGGGSAVTLDESGGGLQTPGGALSLVCKASGFTFSSHGMGWVRQAPGKGLEWVGSISTGRYTFYAPAVKGRATISRDNGQSTLRLQLNNLRAEDTGTYYCTKCAGLNGCGGGEIDAWGHGTEVIVSS
notes: Bivalent scFv-Fc; also called MAb AB108; not shown: Fc fragment of human IgG1, cloned in frame with the scFv
As for B3, the “% of binding to wild type GLUT4” value in test [1] worked out at 108%; in test [2] it was 72%; in test [3] it was 96%; in test [4] it was 53%.

B4: AB111 (Fc fusion)
scFv: ALTQPSSVSANPGETVKITCSGSGSWYGWFQQKSPGSAPVTVIYSNDKRPSDIPSRFSGSKSGSTSTLTITGVQVEDEAVYYCGNWDIFGAGTTLTVLGQSSRSSGGGGSSGGGGSAVTLDESGGGLQTPGGALSLVCKASGFTFSSHGMGWVRQAPGKGLEWVASISTGRYTFYAPAVKGRATISRDNGQSTVRLQLNNLRAEDTATYYCTKCAGLNGCGGGEIDAWGHGTEVIVSS
notes: Bivalent scFv-Fc; also called MAb AB111; not shown: Fc fragment of human IgG1, cloned in frame with the scFv
Regarding B4, the “% of binding to wild type GLUT4” value stood at 97% in test [1], 125% in test [2], 164% in test [3] and 119% in test [4].
